Reference: paper PMC4869123 (Scientific Reports, 2016)
*1 amine or outer side, *2 acyl side, *3 side chain or, on linkers, in order; H or OH if unused. Where a SMILES comes first, the peptide text is derived from it. Bridges are numbered along the chain shown (N, C = ends). Roman numbers before positions name the chains, in order. Where no end group is shown, it is not given here. [ ]: non-standard residue; d: D form. X1 = O=C(CCOCCOCCOCCOCCOCCOCCOCCOCCOCCOCCOCCOCCOCCOCCOCCOCCOCCOCCOCCOCCOCCC(=O)[*:2])[*:1]; CO(CH2CH2O)5CH2CH2CO = O=C(CCOCCOCCOCCOCCOCCC(=O)[*:2])[*:1]; Lys(Me2) = CN(C)CCCC[C@H](N)C(=O)O

B1: peptide 3 (peptide)
peptide: Ac-IVVTMPADLWDWIRK
modifications: not fully specified (C-terminus)
notes: analogue of peptide 2, K at position 15; made on Rink resin; a C-terminal amide is surmised; source: synthetic peptide
B2: peptide 13 (peptide)
peptide: Ac-IVVTAPADLWDWIRA
modifications: not fully specified (C-terminus)
notes: analogue of peptide 2, A at position 5; made on Rink resin; a C-terminal amide is surmised; source: synthetic peptide
B3: peptide 10 (peptide)
peptide: Ac-IVVTMPAALWDWIRA
modifications: not fully specified (C-terminus)
notes: analogue of peptide 2, A at position 8; made on Rink resin; a C-terminal amide is surmised; source: synthetic peptide
B4: peptide 14 (peptide)
peptide: Ac-IVVAMPADLWDWIRA
modifications: not fully specified (C-terminus)
notes: analogue of peptide 2, A at position 4; made on Rink resin; a C-terminal amide is surmised; source: synthetic peptide
B5: peptide 20 (peptide)
peptide: Ac-IRVTMPADLWDWIRA
modifications: not fully specified (C-terminus)
notes: analogue of peptide 2, R at position 2; made on Rink resin; a C-terminal amide is surmised; source: synthetic peptide
B6: peptide 27 (peptide)
peptide: Ac-IVVTMPADLWDWIMA
modifications: not fully specified (C-terminus)
notes: analogue of peptide 2, M at position 14; made on Rink resin; a C-terminal amide is surmised; source: synthetic peptide
B7: peptide 8 (peptide)
peptide: Ac-IVVTMPADLADWIRA
modifications: not fully specified (C-terminus)
notes: analogue of peptide 2, A at position 10; made on Rink resin; a C-terminal amide is surmised; source: synthetic peptide
B8: peptide 9 (peptide)
peptide: Ac-IVVTMPADAWDWIRA
modifications: not fully specified (C-terminus)
notes: analogue of peptide 2, A at position 9; made on Rink resin; a C-terminal amide is surmised; source: synthetic peptide
B9: peptide 21 (peptide)
peptide: Ac-ITVTMPADLWDWIRA
modifications: not fully specified (C-terminus)
notes: analogue of peptide 2, T at position 2; made on Rink resin; a C-terminal amide is surmised; also called V2T; source: synthetic peptide
B10: peptide 22 (peptide)
peptide: Ac-IWVTMPADLWDWIRA
modifications: not fully specified (C-terminus)
notes: analogue of peptide 2, W at position 2; made on Rink resin; a C-terminal amide is surmised; source: synthetic peptide
B11: peptide 5 (peptide)
peptide: Ac-IVVTMPADLWDWARA
modifications: not fully specified (C-terminus)
notes: analogue of peptide 2, A at position 13; made on Rink resin; a C-terminal amide is surmised; source: synthetic peptide
B12: peptide 12 (peptide)
peptide: Ac-IVVTMAADLWDWIRA
modifications: not fully specified (C-terminus)
notes: analogue of peptide 2, A at position 6; made on Rink resin; a C-terminal amide is surmised; source: synthetic peptide
B13: peptide 4 (peptide)
peptide: Ac-IVVTMPADLWDWIAA
modifications: not fully specified (C-terminus)
notes: analogue of peptide 2, A at position 14; made on Rink resin; a C-terminal amide is surmised; source: synthetic peptide
B14: peptide 7 (peptide)
peptide: Ac-IVVTMPADLWAWIRA
modifications: not fully specified (C-terminus)
notes: analogue of peptide 2, A at position 11; made on Rink resin; a C-terminal amide is surmised; source: synthetic peptide
B15: peptide 15 (peptide)
peptide: Ac-IVATMPADLWDWIRA
modifications: not fully specified (C-terminus)
notes: analogue of peptide 2, A at position 3; made on Rink resin; a C-terminal amide is surmised; source: synthetic peptide
B16: peptide 28 (peptide)
peptide: Ac-IVVTMPADLWDWINA
modifications: not fully specified (C-terminus)
notes: analogue of peptide 2, N at position 14; made on Rink resin; a C-terminal amide is surmised; source: synthetic peptide
B17: peptide 18 (peptide)
peptide: Ac-IHVTMPADLWDWIRA
modifications: not fully specified (C-terminus)
notes: analogue of peptide 2, H at position 2; made on Rink resin; a C-terminal amide is surmised; also called V2H; source: synthetic peptide
B18: peptide 23 (peptide)
peptide: Ac-IYVTMPADLWDWIRA
modifications: not fully specified (C-terminus)
notes: analogue of peptide 2, Y at position 2; made on Rink resin; a C-terminal amide is surmised; source: synthetic peptide
B19: peptide 17 (peptide)
peptide: Ac-AVVTMPADLWDWIRA
modifications: not fully specified (C-terminus)
notes: analogue of peptide 2, A at position 1; made on Rink resin; a C-terminal amide is surmised; source: synthetic peptide
B20: peptide 6 (peptide)
peptide: Ac-IVVTMPADLWDAIRA
notes: analogue of peptide 2, A at position 12; made on Rink resin; a C-terminal amide is surmised; also called W12A variant; source: synthetic peptide
B21: peptide 16 (peptide)
peptide: Ac-IAVTMPADLWDWIRA
modifications: not fully specified (C-terminus)
notes: analogue of peptide 2, A at position 2; made on Rink resin; a C-terminal amide is surmised; source: synthetic peptide
B22: peptide 19 (peptide)
peptide: Ac-IQVTMPADLWDWIRA
modifications: not fully specified (C-terminus)
notes: analogue of peptide 2, Q at position 2; made on Rink resin; a C-terminal amide is surmised; source: synthetic peptide
B23: peptide 2 (peptide)
peptide: Ac-IVVTMPADLWDWIRA
modifications: not fully specified (C-terminus)
notes: analogue of peptide 1 with lysine to arginine at position 14; parent of the alanine scan; made on Rink resin; a C-terminal amide is surmised; source: synthetic peptide

Tests used:
human IL-17A = biological target: T1, human IL-17A (Homo sapiens, UniProt Q16552); assay: BJ human fibroblast cell assay, IL-17A stimulated GRO-α production; format: cell-based; conditions: BJ human fibroblast cells, 1 ng/ml human IL-17A
T1 construct: host or cells: added to BJ human fibroblasts (ATCC CRL2522)
T1 sequence (Q16552 24-155): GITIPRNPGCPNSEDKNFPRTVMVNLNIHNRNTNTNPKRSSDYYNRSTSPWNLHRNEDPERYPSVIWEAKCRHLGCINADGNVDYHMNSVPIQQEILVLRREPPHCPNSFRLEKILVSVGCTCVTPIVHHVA
From the text: For inhibitor screen, human BJ fibroblast cells (ATCC CRL2522) (American Type Culture Collection, VA) were used. For mouse cell based assay MLE-12 mouse epithelial cells (ATCC CRL2110) were used. Both cell lines were maintained in ATCC recommended media.

[1] = biological target: T2, biotinylated recombinant human IL-17A (rhIL-17, R&D Systems #317-ILB) (human, UniProt Q16552 24-155, biotinylated); conditions: both partners purified
T2 construct: IL-17A, human, recombinant; also called Biotinylated IL-17A; source: bought: R&D Systems
T2 sequence (Q16552 24-155): as above

Molecule | IC50 (human IL-17A) | IC50 [1]
CC[C@H](C)[C@H](NC(C)=O)C(=O)N[C@@H](Cc1c[nH]cn1)C(=O)N[C@H](C(=O)N[C@H](C(=O)N[C@H](C(=O)N1CCC[C@H]1C(=O)N[C@@H](C)C(=O)N[C@@H](CC(=O)O)C(=O)N[C@@H](CC(C)C)C(=O)N[C@@H](Cc1c[nH]c2ccccc12)C(=O)N[C@@H](CC(=O)O)C(=O)N[C@@H](Cc1c[nH]c2ccccc12)C(=O)N[C@H](C(=O)N[C@@H](CC(N)=O)C(N)=O)[C@@H](C)CC)[C@@H](C)CC)[C@@H](C)O)C(C)C [Compound 35] | 12 nM | –
CC[C@H](C)[C@H](NC(C)=O)C(=O)N[C@H](C(=O)N[C@H](C(=O)N[C@H](C(=O)N[C@H](C(=O)N1CCC[C@H]1C(=O)N[C@@H](CCCCNC(=O)CCOCCOCCOCCOCCOCCC(=O)NCCCC[C@H](NC(=O)[C@@H]1CCCN1C(=O)[C@@H](NC(=O)[C@@H](NC(=O)[C@@H](NC(=O)[C@@H](NC(=O)[C@@H](NC(C)=O)[C@@H](C)CC)[C@@H](C)O)C(C)C)[C@@H](C)O)[C@@H](C)CC)C(=O)N[C@@H](CC(=O)O)C(=O)N[C@@H](CC(C)C)C(=O)N[C@@H](Cc1c[nH]c2ccccc12)C(=O)N[C@@H](CC(=O)O)C(=O)N[C@@H](Cc1c[nH]c2ccccc12)C(=O)N[C@H](C(=O)N[C@@H](CC(N)=O)C(=O)N[C@@H](CCCCN(C)C)C(N)=O)[C@@H](C)CC)C(=O)N[C@@H](CC(=O)O)C(=O)N[C@@H](CC(C)C)C(=O)N[C@@H](Cc1c[nH]c2ccccc12)C(=O)N[C@@H](CC(=O)O)C(=O)N[C@@H](Cc1c[nH]c2ccccc12)C(=O)N[C@H](C(=O)N[C@@H](CC(N)=O)C(=O)N[C@@H](CCCCN(C)C)C(N)=O)[C@@H](C)CC)[C@@H](C)CC)[C@@H](C)O)C(C)C)[C@@H](C)O [Compound 42] (I: Ac-ITVTIPKDLWDWIN[Lys(Me2)]-NH2 / II: Ac-ITVTIPKDLWDWIN[Lys(Me2)]-NH2; linker I:7-II:7 via CO(CH2CH2O)5CH2CH2CO) | 24 nM | –
CC[C@H](C)[C@H](NC(C)=O)C(=O)N[C@H](C(=O)N[C@H](C(=O)N[C@@H](CCCCNC(=O)CCOCCOCCOCCOCCOCCOCCOCCOCCOCCOCCOCCOCCOCCOCCOCCOCCOCCOCCOCCOCCOCCC(=O)NCCCC[C@H](NC(=O)[C@@H](NC(=O)[C@@H](NC(=O)[C@@H](NC(C)=O)[C@@H](C)CC)[C@@H](C)O)C(C)C)C(=O)N[C@H](C(=O)N1CCC[C@H]1C(=O)N[C@@H](C)C(=O)N[C@@H](CC(=O)O)C(=O)N[C@@H](CC(C)C)C(=O)N[C@@H](Cc1c[nH]c2ccccc12)C(=O)N[C@@H](CC(=O)O)C(=O)N[C@@H](Cc1c[nH]c2ccccc12)C(=O)N[C@H](C(=O)N[C@@H](CC(N)=O)C(=O)N[C@@H](CCCCN(C)C)C(N)=O)[C@@H](C)CC)[C@@H](C)CC)C(=O)N[C@H](C(=O)N1CCC[C@H]1C(=O)N[C@@H](C)C(=O)N[C@@H](CC(=O)O)C(=O)N[C@@H](CC(C)C)C(=O)N[C@@H](Cc1c[nH]c2ccccc12)C(=O)N[C@@H](CC(=O)O)C(=O)N[C@@H](Cc1c[nH]c2ccccc12)C(=O)N[C@H](C(=O)N[C@@H](CC(N)=O)C(=O)N[C@@H](CCCCN(C)C)C(N)=O)[C@@H](C)CC)[C@@H](C)CC)C(C)C)[C@@H](C)O [Compound 41] (I: Ac-ITVKIPADLWDWIN[Lys(Me2)]-NH2 / II: Ac-ITVKIPADLWDWIN[Lys(Me2)]-NH2; linker I:4-II:4 via X1) | 15 nM | –
Ac-IHVTIPADLWDWI-NH2 [Compound 36] | 183 nM | –
CC[C@H](C)[C@H](NC(=O)CCOCCOCCOCCOCCOCCOCCOCCOCCOCCOCCOCCOCCOCCOCCOCCOCCOCCOCCOCCOCCOCCC(=O)N[C@H](C(=O)N[C@H](C(=O)N[C@H](C(=O)N[C@H](C(=O)N[C@H](C(=O)N1CCC[C@H]1C(=O)N[C@@H](C)C(=O)N[C@@H](CC(=O)O)C(=O)N[C@@H](CC(C)C)C(=O)N[C@@H](Cc1c[nH]c2ccccc12)C(=O)N[C@@H](CC(=O)O)C(=O)N[C@@H](Cc1c[nH]c2ccccc12)C(=O)N[C@H](C(=O)N[C@@H](CC(N)=O)C(=O)N[C@@H](CCCCN(C)C)C(N)=O)[C@@H](C)CC)[C@@H](C)CC)[C@@H](C)O)C(C)C)[C@@H](C)O)[C@@H](C)CC)C(=O)N[C@H](C(=O)N[C@H](C(=O)N[C@H](C(=O)N[C@H](C(=O)N1CCC[C@H]1C(=O)N[C@@H](C)C(=O)N[C@@H](CC(=O)O)C(=O)N[C@@H](CC(C)C)C(=O)N[C@@H](Cc1c[nH]c2ccccc12)C(=O)N[C@@H](CC(=O)O)C(=O)N[C@@H](Cc1c[nH]c2ccccc12)C(=O)N[C@H](C(=O)N[C@@H](CC(N)=O)C(=O)N[C@@H](CCCCN(C)C)C(N)=O)[C@@H](C)CC)[C@@H](C)CC)[C@@H](C)O)C(C)C)[C@@H](C)O [Compound 39] (I: ITVTIPADLWDWIN[Lys(Me2)]-NH2 / II: ITVTIPADLWDWIN[Lys(Me2)]-NH2; linker I:N-II:N via X1) | 0.74 nM | –
Ac-TIPADLWDWINK-NH2 [Compound 34] | > 1000 nM | –
B1 | – | 66 nM
B2 | – | 11 nM
B3 | – | 4020 nM
B4 | – | 195 nM
B5 | – | 117 nM
B6 | – | 31 nM
B7 | – | 524 nM
B8 | – | 640 nM
B9 | – | 31 nM
B10 | – | 522 nM
B11 | – | 402 nM
B12 | – | 2650 nM
B13 | – | 172 nM
B14 | – | 474 nM
B15 | – | 5720 nM
B16 | – | 26 nM
B17 | – | 45 nM
B18 | – | 64 nM
B19 | – | 167 nM
B20 | – | 7450 nM
B21 | – | 149 nM
B22 | – | 71 nM
B23 | – | 80 nM
